Legend:
Assay in all cases: fructose release, DNS method
Details in all cases: 20 mM sodium acetate pH 5.5, 1 mM CaCl2, 28°C, 5-200 mM sucrose
Gtf2 = tested on: T1, Gtf2; assay type: biochemical, Leuconostoc mesenteroides subsp. mesenteroides
T1 construct: signal peptide removed, C-terminal His6 (pET23b), E. coli BL21(DE3); full-length precursor 1479 residues; draft genome BOPR01000001
Excerpt: fructose release, DNS method on Gtf2

[1] = substrate: OC[C@H]1O[C@@](CO)(O[C@H]2O[C@H](CO)[C@@H](O)[C@H](O)[C@H]2O)[C@@H](O)[C@@H]1O; assay type: biochemical, Leuconostoc mesenteroides
Excerpt: fructose release, DNS method on LEUM1747

[2] = substrate: OC[C@H]1O[C@@](CO)(O[C@H]2O[C@H](CO)[C@@H](O)[C@H](O)[C@H]2O)[C@@H](O)[C@@H]1O; assay type: biochemical, Leuconostoc mesenteroides; remark: listed apart in the source
Excerpt: fructose release, DNS method on LEUM1752

Question: With `OC[C@H]1O[C@@](CO)(O[C@H]2O[C@H](CO)[C@@H](O)[C@H](O)[C@H]2O)[C@@H](O)[C@@H]1O` [sucrose] as the molecule, how does the Km (Gtf2) read?
Answer: Its Km is 23 mM.

B1: LEUM1747 (Leuconostoc mesenteroides subsp. mesenteroides ATCC 8293) (protein)
chain: TPSVLGDSSVPDVSANNVQSASDNTTDTQQNTTVTEENDKVQSAATNDNVTTAASDTTQSADNNVTEKQSDDHALDNEKVDNKQDEVAQTNVTSKDEESAVASTDTDPAETTTDETQQVSGKYVEKDGSWYYYFDDGKNAKGLSTIDNNIQYFDESGKQVKGQYVTIDNQTYYFDKDSGDELTGLQSIDGNIVAFNDEGQQIFNQYYQSENGTTYYFDDKGHAATGIKNIEGKNYYFDNLGQLKKGFSGVIDGQIMTFDQETGQEVSNTTSEIKEGLTTQNTDYSEHNAAHGTDAEDFENIDGYLTASSWYRPTDILRNGTDWEPSTDTDFRPILSVWWPDKNTQVNYLNYMADLGFISNADSFETGDSQSLLNEASNYVQKSIEMKISAQQSTEWLKDAMAAFIVTQPQWNETSEDMSNDHLQNGALTYVNSPLTPDANSNFRLLNRTPTNQTGEQAYNLDNSKGGFELLLANDVDNSNPVVQAEQLNWLYYLMNFGTITANDADANFDGIRVDAVDNVDADLLQIAADYFKLAYGVDQNDATANQHLSILEDWSHNDPLYVTDQGSNQLTMDDYVHTQLIWSLTKSSDIRGTMQRFVDYYMVDRSNDSTENEAIPNYSFVRAHDSEVQTVIAQIVSDLYPDVENSLAPTTEQLAAAFKVYNEDEKLADKKYTQYNMASAYAMLLTNKDTVPRVYYGDLYTDDGQYMATKSPYYDAINTLLKARVQYVAGGQSMSVDSNDVLTSVRYGKDAMTASDTGTSETRTEGVGVIVSNNAELQLEDGHTVTLHMGAAHKNQAYRALLSTTADGLAYYDTDENAPVAYTDANGDLIFTNESIYGVQNPQVSGYLAVWVPVGAQQDQDARTASDTTTNTSDKVFHSNAALDSQVIYEGFSNFQAFATDSSEYTNVVIAQNADQFKQWGVTSFQLAPQYRSSTDTSFLDSIIQNGYAFTDRYDLGYGTPTKYGTADQLRDAIKALHASGIQAIADWVPDQIYNLPEQELATVTRTNSFGDDDTDSDIDNALYVVQSRGGGQYQEMYGGAFLEELQALYPSLFKVNQISTGVPIDGSVKITEWAAKYFNGSNIQGKGAGYVLKDMGSNKYFKVVSNTEDGDYLPKQLTNDLSETGFTHDDKGIIYYTLSGYRAQNAFIQDDDNNYYYFDKTGHLVTGLQKINNHTYFFLPNGIELVKSFLQNEDGTIVYFDKKGHQVFDQYITDQNGNAYYFDDAGVMLKSGLATIDGHQQYFDQNGVQVKDKFVIGTDGYKYYFEPGSGNLAILRYVQNSKNQWFYFDGNGHAVTGFQTINGKKQYFYNDGHQSKGEFIDADGDTFYTSATDGRLVTGVQKINGITYAFDNTGNLITNQYYQLADGKYMLLDDSGRAKTGFVLQDGVLRYFDQNGEQVKDAIIVDPDTNLSYYFNATQGVAVKNDYFEYQGNWYLTDANYQLIKGFKAVDDSLQHFDEVTGVQTKDSALISAQGKVYQFDNNGNAVSA
notes: signal peptide removed, C-terminal His6 (pET23b), E. coli BL21(DE3)
Question: Which Km [1] does the source give for B1 here?
Answer: Its Km is 2.5 × 10^1 ± 0.2 mM.

Question: What about the kcat/Km [1] of the same molecule?
Answer: Its kcat/Km is 1400 M⁻¹ s⁻¹.

B2: LEUM1752 (Leuconostoc mesenteroides subsp. mesenteroides ATCC 8293) (protein)
chain: DVSQNNGVVVATAVDQSNLDATTSDKSITTDDKAATTAATSTDDKATTTVATSTDDKDTTTAATSTDDKATTTVATSTDDKATTTAATSTDDKAATTAATSTDDKAATTAATSTDDKAATTADTSTDDKAATTAATSTDDKATTTAATSTDDKTATTVGTSDNNNSATASDKDVSSSAQKSQTIDNNSKTADTTAALEASSKNLKTIDGKTYYYDDDDQVKKNFATVIDGKVLYFDKETGALADTNDYQFLEGLTSENNTYTEHNASVGTSSDSYTNVDGYLTADSWYRPKDILVNGQNWESSKDDDLRPLLMTWWPDKATQVNYLNAMKYLDATETETVYTSDDSQDALNKAAQNIQVKIEEKISQEGQTQWLKDDISKFVDSQSNWNIASESKGTDHLQGGALLYVNSDKTPDANSDYRLLNRTPTNQTGTPLYTTDPTQGGYDFLLANDVDNSNPVVQAEQLNWMYYLLNFGSITNNDADANFDSIRVDAVDNVDADLLQIAADYFKAAYGVDKSDAISNQHVSILEDWSDNDAEYVKDNGDNQLSMDNKLRLSLKYSLTMPAVDQYGNKRSGLEPFLTNSLVDRTNDSTDNTAQPNYSFVRAHDSEVQTVIAEIIKQRIDPDSDGLSPTMDQLTEAFKIYNADQLKTDKEFTQYNIPSTYATILTNKDTVPRVYYGDMYTDDGQYMATKSLYYDAIDTLLKSRIKYVSGGQTMSMKYMQGDSSMAADSYRGILTSVRYGNGAMTATDAGTNETRTQGIAVIESNNPDLKLSSTDQVVVDMGIAHKNQAYRPALLTTKDGIDTYVSDSDVSQSLIRYTNSNGQLIFNSSDIVGTANPQVSGYLAVWVPVGASDTQDARTESSTATTADGQTLHSNAALDSQVIYESFSNFQSTPTTEAEYANVQIANNTDLYKSWGITNFEFPPQYRSSTDSSFLDSIIQNGYAFTDRYDLGFNTPTKYGTVDQLRTAIKALHATGIKAMADWVPDQIYNLTGKEVVAVQRVNNSGIYNQDSVINKTLYASQTVGGGEYQALYGGEFLDEIKKLYPSLFEKNQISTGVPMDASEKIKEWSAKYFNGTNIQGRGAYYVLKDWATNEYFKVSTSSNSSVFLPKQLTNEESNTGFISTDGGMTYYSTSGYQAKDTFIQDDKSNWYYFDKNGYMTYGFQTVNDNNYYFLPNGIELQDAILEDSKGNVYYFNQYGKQAVDGYYMLANKTWRYFDKNGVMANAGLTTVTVDGQEHIQYFDKNGIQVKGTSVKDADGKLRYFDTDSGDMVTNRFGENTDGTWSYFGADGIAVTGAQTISGQKLFFDADGQQIKGKEATDKKGKVHYYDANSGEMITNRFEKLSDGSWAYFNKKGNIVTGAQVINGQHLFFESNGNQVKGREYTATDGKMRYYDADSGDMVTNRFERISDGSWAYFGANGVAVTGEQNINGQQLYFDANGHQVKGAAVTQADGSQKYYDANSGEMIKS
notes: as for B1
Question: For B2, which Km [2] is on record?
Answer: The Km was 1.9 × 10^1 ± 0.1 mM.

Question: What about the kcat/Km [2] of the same molecule?
Answer: The kcat/Km was 1300 M⁻¹ s⁻¹.
